Assay results published in a protein production outcome set (Wang et al. 2014).

Experiment: label from the status in PepcDB records

Sequence	protein production
MPQFFKRTSKIQAIIALRSIAIAIQLLLILFVNLGLAYELPWTPLVSVISLEVLFTFGSYLYYSRNHLSEKKASQKAILVQICADIIFLSLLLFFSGGATNAFVSLLLIPIAIAAVTLTPLLLTVVAFLAIASYSILLWSLPMSVMHGNMQGHFIGMGINFLFSALVVAIVVGKMARSINQQELAIAAYRENLLKQEQVTSLGVASAQVTHQLATPIATVQLLADELSEDFPDNEIVLDMQSQLTRCRDSLSEFRAMVFDIKEQVIKAINCQDLFDEITDNVRVNNPEVSLQLQKNSDEHAKDVTIDADAALLPAILNLINNAIRASKANNSNALSLTCQTIENNWQFTIRDYGKGFTLKKLNELGVKPVNSDQGFGMAVFLSHASLERLGGKLALTNHQEGGALVTLSLPISSLTSGNDYA	failed
MAVSSNGGAIKAVIYDCDGVMFDSFEANLAFYQRIMEMMGRPRLSRDNEEQMRILHTYANREVLAHFFPSPGDWEEAVRCAGAIDYRELVPLMIMEEGFREALDTLKGRVGLGVCTNRSTSMDMVLRLFSLDSYFSIVMTASRVTNPKPHPEPLLKVLEHFGIGPREALFVGDSEVDRLSAEAAGVPFVAYKAPLPAAYRMEHHREIIDLLG	not failed
MQIFETILIFLALVILSSFLHTFLPKIPLAFIQIILGMLLYVTPIPVQFNFDSELFMVALIAPLLFVEGVKVSRVHLRRYIKPVLMMALGLVVTTVIVVGLFVHWIWPELPMAAAFALAAILCPTDAVAVQAITNGKVLPKGSMTILEGESLLNDAAGIISFKIAVAALITGGFSMVNAVEQFLISSIGGFIVGLLIGVALVRFRVTLSRRGIENINMFTFIQLVTPFITYIVAEMFHASGIIAAVVAGLVHGFERDRIAQARTRLQMSYNHTWNILGYALNGFVFSILGFLIPEVVGRIIENEPHNLIFLITVTCLIALAIYLFRFLWVFVLYPYFYLPVSPFQKMISHNEDDQKTAETPPKRGMYAFIMTLCGVHGTISLAIALTLPYMLADHHSFIFRDDLLFIASGMVIISLIVAQMILPVVTPNAKKPKIVGMNFKQARVYILEKVIDSLNQQSSVTSSFQYGNVIKDYHDKLAFLRTVENEDENTKELQRLQKLAFDVENQTLNGLVENGDITTNVLDNYMRYTERTQVYKQASLLQRIKVEVRAMILKRRIRTKVKTNAASPLSVVDNLREISNIMRTVHYRVVSRLGKETTENNKLEVGMICDSYLIRIDNLTPSNFFNPKNENSITKIKLSALKEQRRILNQLVEDEEVSEVTALKIREAINYDEMIIVDSSTD	failed
MLGLGVDRLQADINRLLASLFHQGVLDEQFLQLQQLQDETSPNFVYDVINIYFDESEKLLRNLRLLLMDREFSDYKKIGLHLNQLVGSSSSIGARRVRNVCVAFRSASELSNRPGCLRGLEVVEHEYHYLKNMMHELFQWLQLEQQRILAAGVRYPM	failed
MASILRWFVRAFALALAAQSVCANPRPEVIDTIAATPAGLVAVTEDGTGLWSLVDGSRPAWQARPRAPNARGDMQLEPVAVSPDGRWLAATRGYKDPVIVVRDAATGRAVREIKAPRSGVDGLRFAGDDVLVALYAGRLAAVWEASSGKARGVFELPAAPRQVAASADGRYLAVGQDKQRVTVYDLEGGKSLGNFELGSIASKSHAVPTHDILFMAFAYDGTVVVHHATGYIQRFDPRRAAPAALLGSQDIPLRGVATSLSPDRRVLLTADRPGALTLYRLDQPAPARSALRSALGEVTASAWEAGSRRFAVADNQGRVELWDARKPAGAALEGKHAGAIEQLAFASAGRFLVSSGRDGSIRVRETATGQEAVRLVGLGETGWVSMMPAGYFHSSGLPAEAAINVRIGSDVYGIDNFRERYYRPDILSAALQGRSVRPQRTLADTRPPPQVRADPVPASLAADTYTLVLQLTDQGGGIGDVRVLRNDVAVANHAADAQAAAGSQRRSIPVKLAAGRNEIKVIAFNAENSLSSKPLRLTLDVRATQPEKPVLHAMIVGINEFGEASLNLQYAVNDANAIARELRERTRGLYRDVRIELLTTPQQTSRASLIESLRRYQQLDAGDVFMFYVSTHGAVMGDKPVDQEYFLIPSNAKSPVFAHDAISQHELKRLFSSIPAGKKLLLFDTCFAGALGEALYQPAVERGVAENGAVNVLATAIGSTTLAASAPLEMSYEGYQEHGTFTWVVLQAFRGKAGGGKGNVVLTADLARYVAREVPALARRLQREQNPAVYATGQPFPVVAGR	failed
MASNIILFEDIFVVDQLDPDGKKFDKVTRVQATSHNLEMFMHLDVNTEVYPLAVGDKFTLALAPTLNLDGTPDTGYFTPGAKKTLADKYEYIMHGKLYKISERDGKTPKAELYVSFGGLLMLLKGDPAHISHFELDQRLFLLMRKL	failed
